Molecular target: T1, MBP-Δ116 (truncated XydR response regulator) del1-116 (Clostridium cellulolyticum H10 (ATCC 35319/DSM 5812)) (UniProt B8I0K9)
T1 sequence: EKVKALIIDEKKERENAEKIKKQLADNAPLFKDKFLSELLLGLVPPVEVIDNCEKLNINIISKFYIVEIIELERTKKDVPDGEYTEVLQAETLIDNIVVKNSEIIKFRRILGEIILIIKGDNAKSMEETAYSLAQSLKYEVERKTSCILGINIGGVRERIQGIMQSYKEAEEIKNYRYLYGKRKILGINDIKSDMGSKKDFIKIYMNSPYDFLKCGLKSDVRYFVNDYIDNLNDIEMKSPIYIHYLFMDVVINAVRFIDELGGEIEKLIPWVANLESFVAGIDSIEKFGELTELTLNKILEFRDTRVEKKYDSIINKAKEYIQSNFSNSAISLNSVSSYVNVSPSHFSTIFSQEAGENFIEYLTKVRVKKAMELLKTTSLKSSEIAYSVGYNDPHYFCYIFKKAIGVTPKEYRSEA
Experiment: EMSA
Details: 10 mM Tris pH 7.5, 150 mM KCl, 1 mM DTT, 30 ng/uL salmon sperm DNA, 0.1 ug/uL BSA, 0.05% NP-40, 2.5% glycerol, 20 C, 20 min; 20 fmol probe; 5% native PAGE

## CCTTCTTAATCAGTTTCTAATTGCCAAAGAATAAGAGTAAAATGATTAGTAAATCTATATTCATTATAGAATGTAAACTGTTTCCAGCTCAATATAAATCCTTTTGACTTTTGTATATTAATTTTGTAAAATATCATTTTCAGTGTATTGGAGCAACATAAAAAAAGCAGCTGTAGAAAATCCAGCTGCTTTATACTTGCTATTTGTACAATTTTAGAATTACTTGTTAATACCTTATTCCGCAGC (double strand) [R6 (upstream Ccel_1656)]
  binding: binds

## GTATATAAGGTATTGACTTTCTTTGGCAGATGTAAGAATAGGAGTAAAATGAAAAGAACGATTAGTACATATTAACTATGTTAAAAATATTATAGAATGTAAATGGTTTCCATTTCAATATAAATCTTTTTGGTATTGGTATAAATTTTTGAATTCATTTTATCATATTTTGAAAAATTAGTAAATTATTTATTTTATTTTACACTTTTGTATATATTTTTTTAAATTTGTTAAGATATATTTTGCTATGCTTCACTCCTATACTCCTTTGG (double strand) [R3 (upstream Ccel_1229)]
  binding: binds
